# Patent US20080003630
# B1: PDGF Receptor β Kinase, intracellular domain (ICD) (protein)
# chain: RYEIRWKVIESVSSDGHEYIYVDPMQLPYDSTWELPRDQLVLGRTLGSGAFGQVVEATAHGLSHSQATMKVAVKMLKSTARSSEKQALMSELKIMSHLGPHLNVVNLLGACTKGGPIYIITEYCRYGDLVDYLHRNKHTFLQHHSDKRRPPSAELYSNALPVGLPLPSHVSLTGESDGGYMDMSKDESVDYVPMLDMKGDVKYADIESSNYMAPYDNYVPSAPERTCRATLINESPVLSYMDLVGFSYQVANGMEFLASKNCVHRDLAARNVLICEGKLVKICDFGLARDIMRDSNYISKGSTFLPLKWMAPESIFNSLYTTLSDVWSFGILLWEIFTLGGTPYPELPMNEQFYNAIKRGYRMAQPAHASDEIYEIMQKCWEEKFEIRPPFSQLVLLLERLLGEGYKKKYQQVDEEFLRSDHPAILRSQARLPGFHGLRSPLDTSSVLYTAVQPNEGDNDYIIPLPDPKPEVADEGPLEGSPSLASSTLNEVNTSSTISCDSPLEPQDEPEPEPQLELQVEPEPELEQLPDSGCPAPRAEAEDSFL
# B2: ErbB4 Kinase, intracellular domain (ICD) (protein)
# chain: RRKSIKKKRALRRFLETELVEPLTPSGTAPNQAQLRILKETELKRVKVLGSGAFGTVYKGIWVPEGETVKIPVAIKILNETTGPKANVEFMDEALIMASMDHPHLVRLLGVCLSPTIQLVTQLMPHGCLLEYVHEHKDNIGSQLLLNWCVQIAKGMMYLEERRLVHRDLAARNVLVKSPNHVKITDFGLARLLEGDEKEYNADGGKMPIKWMALECIHYRKFTHQSDVWSYGVTIWELMTFGGKPYDGIPTREIPDLLEKGERLPQPPICTIDVYMVMVKCWMIDADSRPKFKELAAEFSRMARDPQRYLVIQGDDRMKLPSPNDSKFFQNLLDEEDLEDMMDAEEYLVPQAFNIPPPIYTSRARIDSNRSEIGHSPPPAYTPMSGNQFVYRDGGFAAEQGVSVPYRAPTSTIPEAPVAQGATAEIFDDSCCNGTLRKPVAPHVQEDSSTQRYSADPTVFAPERSPRGELDEEGYMTPMRDKPKQEYLNPVEENPFVSRRKNGDLQALDNPEYHNASNGPPKAEDEYVNEPLYLNTFANTLGKAEYLKNNILSMPEKAKKAFDNPDYWNHSLPPRSTLQHPDYLQEYSTKYFYKQNGRIRPIVAENPEYLSEFSLKPGTVLPPPPYRHRNTVV
# B3: IGF-1 Receptor Kinase, intracellular domain (ICD) (protein)
# chain: RKRNNSRLGNGVLYASVNPEYFSAADVYVPDEWEVAREKITMSRELGQGSFGMVYEGVAKGVVKDEPETRVAIKTVNEAASMRERIEFLNEASVMKEFNCHHVVRLLGVVSQGQPTLVIMELMTRGDLKSYLRSLRPEMENNPVLAPPSLSKMIQMAGEIADGMAYLNANKFVHRDLAARNCMVAEDFTVKIGDFGMTRDIYETDYYRKGGKGLLPVRWMSPESLKDGVFTTYSDVWSFGVVLWEIATLAEQPYQGLSNEQVLRFVMEGGLLDKPDNCPDMLFELMRMCWQYNPKMRPSFLEIISSIKEEMEPGFREVSFYYSEENKLPEPEELDLEPENMESVPLDPSASSSSLPLPDRHSGHKAENGPGPGVLVLRASFDERQPYAHMNGGRKNERALPLPQSSTC
# B4: VEGF Receptor 1 Kinase, intracellular domain (ICD) (protein)
# chain: RKMKRSSSEIKTDYLSIIMDPDEVPLDEQCERLPYDASKWEFARERLKLGKSLGRGAFGKVVQASAFGIKKSPTCRTVAVKMLKEGATASEYKALMTELKILTHIGHHLNVVNLLGACTKQGGPLMVIVEYCKYGNLSNYLKSKRDLFFLNKDAALHMEPKKEKMEPGLEQGKKPRLDSVTSSESFASSGFQEDKSLSDVEEEEDSDGFYKEPITMEDLISYSFQVARGMEFLSSRKCIHRDLAARNILLSENNVVKICDFGLARDIYKNPDYVRKGDTRLPLKWMAPESIFDKIYSTKSDVWSYGVLLWEIFSLGGSPYPGVQMDEDFCSRLREGMRMRAPEYSTPEIYQIMLDCWHRDPKERPRFAELVEKLGDLLQANVQQDGKDYIPINAILTGNSGFTYSTPAFSEDFFKESISAPKFNSGSSDDVRYVNAFKFMSLERIKTFEELLPNATSMFDDYQGDSSTLLASPMLKRFTWTDSKPKASLKIDLRVTSKSKESGLSDVSRPSFCHSSCGHVSEGKRRFTYDHAELERKIACCSPPPDYNSVVLYSTPPI
# Biological target: GST-poly (Glu, Tyr) fusion protein
# Sequence (chain, as listed by the source): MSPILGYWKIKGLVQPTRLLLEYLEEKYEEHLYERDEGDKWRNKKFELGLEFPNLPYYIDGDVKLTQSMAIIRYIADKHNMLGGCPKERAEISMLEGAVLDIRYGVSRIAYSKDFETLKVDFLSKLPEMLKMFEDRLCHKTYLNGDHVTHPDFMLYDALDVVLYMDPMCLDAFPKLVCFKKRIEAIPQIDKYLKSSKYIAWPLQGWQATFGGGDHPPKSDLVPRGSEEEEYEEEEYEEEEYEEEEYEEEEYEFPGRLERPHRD
Protein,"phosphorylation of the substrate with ATP, Western blotting with Anti-Phosphotyrosine clone 4G10","phosphorylation of the plate-bound substrate, ELISA with HRP-labeled p-Tyr (PY20) antibody, absorbance (650 nm)"
B1,"In +of all of (i to vii) in FIG. 1, a single band was observed at a position where the phosphorylated GST-poly (Glu, Tyr) fusion protein appears",–
B2,"In +of all of (i to vii) in FIG. 1, a single band was observed at a position where the phosphorylated GST-poly (Glu, Tyr) fusion protein appears",–
B3,"In +of all of (i to vii) in FIG. 1, a single band was observed at a position where the phosphorylated GST-poly (Glu, Tyr) fusion protein appears","In either case of HER1 and IGF1R, as the tyrosine kinase amount increased, a measured value was increased"
B4,"In +of all of (i to vii) in FIG. 1, a single band was observed at a position where the phosphorylated GST-poly (Glu, Tyr) fusion protein appears",–
